What is called Kd is a measure of binding affinity in units of concentration. Read a high Kd as weaker binding.

The target of one assay is FcγRIIIa F158 (human, UniProt P08637). The assay is described as follows: SPR. In general terms: In SPR one partner is held on a chip, and binding of the other changes the refractive index at the surface.
The target in another assay is FcγRIIIa V158 (human, UniProt P08637). Kind of assay: SPR.
Assay [1] deals with T1, human FcRn (human, UniProt P55899). The assay is described as follows: SPR, pH 7.4.
T1 sequence (P55899 24-297, chain 1 of 2): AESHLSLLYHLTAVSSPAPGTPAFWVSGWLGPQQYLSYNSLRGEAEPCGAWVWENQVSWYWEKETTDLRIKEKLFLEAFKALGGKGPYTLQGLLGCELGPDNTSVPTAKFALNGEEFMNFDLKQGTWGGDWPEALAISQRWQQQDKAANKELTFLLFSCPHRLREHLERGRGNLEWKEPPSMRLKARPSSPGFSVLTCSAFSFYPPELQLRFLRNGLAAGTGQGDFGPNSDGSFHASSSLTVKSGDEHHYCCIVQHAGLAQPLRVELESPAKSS
T1 sequence (chain, as listed by the source, chain 2 of 2): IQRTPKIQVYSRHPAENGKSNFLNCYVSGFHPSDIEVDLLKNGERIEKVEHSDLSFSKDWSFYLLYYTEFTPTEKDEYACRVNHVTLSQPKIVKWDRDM
In a further assay the target is T2, FcγRIIa H131 (human, UniProt P12318).
T2 chain: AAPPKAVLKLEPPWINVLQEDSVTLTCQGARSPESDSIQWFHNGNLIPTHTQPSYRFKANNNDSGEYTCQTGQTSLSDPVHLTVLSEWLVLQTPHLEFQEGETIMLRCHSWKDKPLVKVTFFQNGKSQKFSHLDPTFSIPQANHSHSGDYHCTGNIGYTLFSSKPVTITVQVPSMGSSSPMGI
The assay is described as follows: SPR.

Assay [2] has as its target T1, human FcRn. The assay is described as follows: SPR, pH 6.0.
The next assay addresses T3, FcγRIa (human, UniProt P12314).
T3 chain: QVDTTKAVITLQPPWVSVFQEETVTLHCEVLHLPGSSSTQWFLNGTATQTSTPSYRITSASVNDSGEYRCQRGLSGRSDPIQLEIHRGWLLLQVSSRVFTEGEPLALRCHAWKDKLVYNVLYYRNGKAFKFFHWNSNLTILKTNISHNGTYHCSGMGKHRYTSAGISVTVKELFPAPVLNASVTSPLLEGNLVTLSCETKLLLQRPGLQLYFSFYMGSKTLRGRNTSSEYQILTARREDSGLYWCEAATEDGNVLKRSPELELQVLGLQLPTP
The assay is described as follows: SPR.

The next assay deals with T4, FcγRIIa R131 (human, UniProt P12318).
T4 chain: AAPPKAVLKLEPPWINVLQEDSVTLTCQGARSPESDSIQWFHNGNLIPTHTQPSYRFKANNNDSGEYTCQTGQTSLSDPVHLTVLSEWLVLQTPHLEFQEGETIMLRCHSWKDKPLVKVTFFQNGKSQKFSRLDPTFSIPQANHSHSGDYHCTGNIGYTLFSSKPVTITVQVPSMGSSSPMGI
The assay is described as follows: SPR.

A further assay addresses T5, FcγRIIb (human, UniProt P31994).
T5 chain: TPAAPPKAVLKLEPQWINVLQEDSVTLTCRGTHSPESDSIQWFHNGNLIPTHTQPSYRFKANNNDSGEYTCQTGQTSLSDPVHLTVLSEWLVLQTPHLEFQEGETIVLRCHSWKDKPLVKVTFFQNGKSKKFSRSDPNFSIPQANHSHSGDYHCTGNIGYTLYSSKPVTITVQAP
The assay is described as follows: SPR.

FcγRIIIa F158, sequence (P08637 17-208): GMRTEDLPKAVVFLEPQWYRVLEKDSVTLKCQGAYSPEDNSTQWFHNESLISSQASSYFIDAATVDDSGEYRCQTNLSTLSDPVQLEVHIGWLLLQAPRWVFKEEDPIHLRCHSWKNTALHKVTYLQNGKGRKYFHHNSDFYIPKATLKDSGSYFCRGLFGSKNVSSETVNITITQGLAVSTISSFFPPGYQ
FcγRIIIa V158, sequence (P08637 17-208 F176V): as the sequence (P08637 17-208) above, with F160V counted along it

B1: IgG1-CD137-009-HC7LC2-FEAR (antibody)
chain 1: EVQLVESGGGLVQPGRSLRLSCTASGFSLNDYWMSWVRQAPGKGLEWVGYIDVGGSLYYAASVKGRFTISRDDSKSIAYLQMNSLKTEDTAVYYCARGGLTYGFDLWGQGTLVTVSSASTKGPSVFPLAPSSKSTSGGTAALGCLVKDYFPEPVTVSWNSGALTSGVHTFPAVLQSSGLYSLSSVVTVPSSSLGTQTYICNVNHKPSNTKVDKRVEPKSCDKTHTCPPCPAPEFEGGPSVFLFPPKPKDTLMISRTPEVTCVVVAVSHEDPEVKFNWYVDGVEVHNAKTKPREEQYNSTYRVVSVLTVLHQDWLNGKEYKCKVSNKALPAPIEKTISKAKGQPREPQVYTLPPSREEMTKNQVSLTCLVKGFYPSDIAVEWESNGQPENNYKTTPPVLDSDGSFFLYSRLTVDKSRWQQGNVFSCSVMHEALHNHYTQKSLSLSPG
chain 2: DIVMTQSPSSLSASVGDRVTITCQASEDISSYLAWYQQKPGKAPKRLIYGASDLASGVPSRFSASGSGTDYTFTISSLQPEDIATYYCHYYATISGLGVAFGGGTKVEIKRTVAAPSVFIFPPSDEQLKSGTASVVCLLNNFYPREAKVQWKVDNALQSGNSQESVTEQDSKDSTYSLSSTLTLSKADYEKHKVYACEVTHQGLSSPVTKSFNRGEC
Consider B1, for which the binding result with FcγRIIIa F158, with FcγRIIIa V158, with human FcRn [1], with FcγRIIa H131, with FcγRIa and with FcγRIIa R131 was “no binding” each time. Besides, the binding result with FcγRIIb is reported as “no binding”. The affinity in the assay with human FcRn [2], expressed as Kd, was 375 nM.

Values taken from US20260347498 (published 2026).
